The source of these data is patent US20230040275A1, “SECRETABLE PROTEIN INDUCED IMMUNE TOLERIZATION AND TREATMENT OF AUTOIMMUNE, ALLERGIC AND OTHER DISEASES AND DISORDERS” (SPARK THERAPEUTICS, INC., priority 2019, published 2023).

The experiment deals with Huh7 cells. Put plainly: Plasma membrane retention of full-length MOG in transformed Huh7 cells. In kind it is cell-based. The conditions noted are these: 72 hr post-transfection, leaders WT, Sp7, HC7s. On the procedure:
To examine the secretability of the full-length MOG protein the plasma membrane and cell lysate and media of transformed Huh7 cells were examined for MOG expression. Huh7 cells were grown to ˜80% confluency and transformed using plasmids expressing full-length myelin oligodendrocyte glycoprotein (MOG) with various leader sequences: Wildtype (WT; native MOG leader), human chymotrypsinogen B2 signal peptide (“Sp7”; 18 amino acid signal peptide of NCBI reference sequence NP_001020371), or a combination of WT with the heavy chain 7 sequence (HC7s; Haryadi et al., PloS ONE 10(2): e0116878. doi:10.1371/journal.pone.0116878 (2015)). Cells and media were harvested 72 hr post-transfection. Plasma membrane fractions from cells were enriched as described (Nishiumi et al., Biosci. Biotechnol. Biochem. 71 (9), 2343-2346, (2007)) Briefly, cells were harvested in modified Buffer A (50 mM Tris, 0.5 mM DTT) with protease inhibitors (cOmplete™ tablets, Roche) and 0.1% Triton X100. The cells were sheared by passage through a 25-gauge needle; 3 times. The homogenate was centrifuged for 10 min at 1000×g at 4° C. The supernatant was harvested as post-plasma membrane (PPM) fraction. […] Standard WES parameters were used, and samples were analyzed on Compass Software (ProteinSimple).

B1: full-length MOG: full-length myelin oligodendrocyte glycoprotein expressed from plasmids with WT, Sp7 or HC7s leader sequences (protein, UniProt Q16653 1-247, looked up)
chain: MASLSRPSLPSCLCSFLLLLLLQVSSSYAGQFRVIGPRHPIRALVGDEVELPCRISPGKNATGMEVGWYRPPFSRVVHLYRNGKDQDGDQAPEYRGRTELLKDAIGEGKVTLRIRNVRFSDEGGFTCFFRDHSYQEEAAMELKVEDPFYWVSPGVLVLLAVLPVLLLQITVGLIFLCLQYRLRGKLRAEIENLHRTFDPHFLRVPCWKITLFVIVPVLGPLVALIICYNWLHRRLAGQFLEELRNPF
modifications: full-length
Take B1: the “localisation of full-length MOG (plasma membrane vs cell lysate and media)” value was “retained in the plasma membrane”. Under “listed as Mature MOG”, the “localisation of full-length MOG (plasma membrane vs cell lysate and media)” value is reported as “enriched in the plasma membrane”.
